Consider 32 sequences from the supplement of paper PMC12764529.

± gives the half width of the 95% confidence interval.

The nature of series [1]: folding stability dG unfold (combined trypsin and chymotrypsin); higher = more stable. Put shortly: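 Designed mini-proteins with no cysteine and under 80 residues were kept only if AlphaFold2 dimer inter-PAE was above 15. In a PA-tagged cDNA display construct, they were digested with trypsin and chymotrypsin and then sequenced. K50 was inferred by Bayesian fitting of counts, and unfolding free energy was derived per protease or combined against a sequence-predicted unfolded-state K50 and a shared folded-state K50.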

Series [2] in a line: folding stability dG unfold from trypsin proteolysis; higher = more stable. The protocol: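 Folding stability of de novo designed mini-proteins (<80 aa, no Cys; designed by TrROS, TrMRF, ProteinMPNN and the joint model) was measured by cDNA display proteolysis with trypsin and chymotrypsin. Each protease was used at 11 concentrations in a threefold dilution series plus a no-protease condition. K50 was inferred by Bayesian fitting of sequencing counts, and dG unfold was derived against a sequence-predicted unfolded-state K50 (Tsuboyama et al. method). Sequences shown include variable-length N-terminal GS-type padding (SAGGSAGG...) inside a display construct carrying a PA tag. Rows were kept only if the AF2 dimer inter-PAE was >15, to exclude likely homo-oligomers.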

Turning to “SAGGGKIKKPKPIVIRVPKNSIKVGDDVPVAVLAKALGIDPSAKAKVGEVKPPENGDYELVVVEVESSAGGS [r16_165_TrMRF]”, the “folding stability dG unfold” value in series [1] was below -1 kcal/mol; in series [2], -0.508 ± 0.34 kcal/mol.

Take “SAGGGMSTPVGVDSKLTEVREDTETGLITTTSVYRAGSEVTTVTESRPLGNPEDVTTLETTTTPASASAGGS [r16_89_JUSTAS]”: the figures for the “folding stability dG unfold” value in series [1] and in series [2] were -0.204 ± 0.15 kcal/mol and 0.0405 ± 0.041 kcal/mol, respectively.

Regarding “SAGGGNMKTITVPASAVTSITRSPTNPNTLTITVSGSGATTTTTLPITPETKITEEGDTVTVTIPGLSAGGS [r16_22_JUSTAS]”, the entries for the “folding stability dG unfold” value in series [1] and in series [2] were -0.263 ± 0.096 kcal/mol and 0.312 ± 0.037 kcal/mol, respectively.

Turning to “SAGGGVTREIPITIKTSEGEPEETITVPAKSREEVDPETGRPVSSVDPGSIEEIKAKLPSSVTSVVLSAGGS [r16_522_JUSTAS]”, the “folding stability dG unfold” value in series [1] was below -1 kcal/mol; in series [2], -0.68 ± 0.077 kcal/mol.

Regarding “SAGGIKLPPGQEIEGKIQYPFPDGMFMTSEQPIRIPPVPPPPPEVEVHLPDGERKPVRSPEEADDAASAGGS [r16_580_TrROS]”, the “folding stability dG unfold” value in series [1] is -0.511 ± 0.26 kcal/mol; in series [2], 0.0184 ± 0.049 kcal/mol.

As for “SAGGKWYVMVKYEWRNPDNGKERNIQVPINREALQEGDLEEAVEEAKKFAREWGYPIKKVEINLMPPGSAGG [r13_954_TrROS]”, the “folding stability dG unfold” value in series [1] is -0.232 ± 0.46 kcal/mol; in series [2], -0.106 ± 0.17 kcal/mol.

In the case of “SAGGMLLYEKTVTSSPDDEALKLAKEIEEKLTPPDYITKIKVEVTPLPNGTYKVTIPIEILPPGYPKSAGGS [r16_128_JUSTAS]”, the “folding stability dG unfold” value is -0.426 ± 0.19 kcal/mol in series [1] and -0.0273 ± 0.076 kcal/mol in series [2].

On to “SAGGMTFVKVKPAPVKFGEGDKEYWVVEIVKVLEVEDVGEKPVVKAEKETIIIPKDNPDALKEAGIDASAGG [r13_670_TrMRF]”, for which the entries for the “folding stability dG unfold” value in series [1] and in series [2] were below -1 kcal/mol and -1.02 ± 0.22 kcal/mol, respectively.

Take “SAGGMTSYSVTVELPETGKKITITVPNNDPNVTPEKAAAEAEKRIKAEKEKIKKELEKKPKKPSSKLKSAGG [r13_126_JUSTAS]”: the “folding stability dG unfold” value in series [1] is below -1 kcal/mol; in series [2], -0.907 ± 0.93 kcal/mol.

Consider “SAGGMVSPEVVKAALDDGNPLPLSEIVARIEAETGLPVEVETGDDSFRIVIRDPNRDVELSSETILLSAGGS [r8_105_JUSTAS]”, for which the “folding stability dG unfold” value in series [1] is -0.399 ± 0.25 kcal/mol; in series [2] it was 0.292 ± 0.057 kcal/mol.

As for “SAGGNVEIERNPDGMITVEFPMKSPEQAIEEVKNFLQQQGWKIKDIPVERPPNGWVKITIPIKPPGASAGGS [r8_253_TrROS]”, the “folding stability dG unfold” value came out at 0.0774 ± 0.3 kcal/mol in series [1] and 0.34 ± 0.057 kcal/mol in series [2].

For the sequence “SAGGNWIMIELPLDDLKNAKPNQKVKIEWPDGKPFEVNAHRHDGRYPVLVRNPENPDKWEPIGEIEIESAGG [r13_745_TrROS]”, the “folding stability dG unfold” value was below -1 kcal/mol in series [1] and -0.0737 ± 0.11 kcal/mol in series [2].

Consider “SAGGPMKVQVAVWRRDPDNGEPKEVEIPMTWDNIRELLDDIPPDGRYMVKIHSPGQPQTIPLEDLKELSAGG [r13_254_TrROS]”, for which the “folding stability dG unfold” value in series [1] was below -1 kcal/mol; in series [2], 0.153 ± 0.42 kcal/mol.

“SAGGPNIEIEQERHPDDGMWTINVKWDNPAEIVEEIAKEIREQNRDIPIMITGPDGNPIMIPLDDIRSAGGS [r8_236_TrROS]”: the “folding stability dG unfold” value is -0.817 ± 0.39 kcal/mol in series [1] and 0.177 ± 0.049 kcal/mol in series [2].

“SAGGPVIKIPIEIMMPNNDLNKFANEIAKELQDDGYKVKINPIEFEPQRDPDGKPDYVHFRATVEVQPSAGG [r13_707_TrROS]”: the results for the “folding stability dG unfold” value in series [1] and in series [2] were below -1 kcal/mol and -0.228 ± 0.18 kcal/mol, respectively.

Take “SAGGSAEKLEEAIEEAKKVPEGAEVPILITVEKDGKPVVFEVKITRLPKEKKIKIDPLKAYLPEEFSAGGSA [r15_724_TrMRF]”: the “folding stability dG unfold” value in series [1] is below -1 kcal/mol; in series [2] it was -0.63 ± 0.39 kcal/mol.

Regarding “SAGGSAGGDGHPDILNAVFTRTETFYREGDDEPGGEGTREILVVVTGDNPENPELALKEAEEAASAGGSAGG [r6_928_TrMRF]”, the “folding stability dG unfold” value in series [1] came to 0.0849 ± 0.18 kcal/mol; in series [2], 0.601 ± 0.055 kcal/mol.

As to “SAGGSAGGDPSRLPVITPETFNVPVPAPGGVNETVTVTVIKLPGGETIVTTTYPDGKTTTELIPSAGGSAGG [r6_111_JUSTAS]”, the entries for the “folding stability dG unfold” value in series [1] and in series [2] were 0.182 ± 0.15 kcal/mol and 0.927 ± 0.058 kcal/mol, respectively.

Take “SAGGSAGGGMVTVEIPLEVTLTTSLTPEPGTAQTVTLPVVVTIEFPPGNPEKLKKEVEKIKKKSSAGGSAGG [r6_280_JUSTAS]”: the “folding stability dG unfold” value in series [1] was below -1 kcal/mol; in series [2] it was -0.456 ± 0.2 kcal/mol.

Take “SAGGSAGGIRIHRDNDKYVIHVPMDPNQPPENIKDILRDLPGLEDPEEIEYVPNPNGQAMIKIPSAGGSAGG [r6_516_TrROS]”: the entries for the “folding stability dG unfold” value in series [1] and in series [2] were below -1 kcal/mol and -0.0828 ± 0.18 kcal/mol, respectively.

In the case of “SAGGSAGGKIEIFDQDQHDEMNQENGMPPKNYWMIRINGKPTAILPPDKPLTPNTIKNLIKEGLSAGGSAGG [r6_243_TrROS]”, the “folding stability dG unfold” value is -0.799 ± 0.8 kcal/mol in series [1] and 0.447 ± 0.15 kcal/mol in series [2].

Take “SAGGSAGGKKVFLPYSVISTVVPKHFPGDEKQALIDAEFLAKKAEEAGFKDVDFVISPVPPGAPSAGGSAGG [r6_545_TrMRF]”: the “folding stability dG unfold” value in series [1] is -0.938 ± 0.27 kcal/mol; in series [2], -0.467 ± 0.23 kcal/mol.

Turning to “SAGGSAGGMITIPINTPGLSPAEAAAIKAQLEADGYPAAEVTITASPVPPVPPLGPENIYSNRGSAGGSAGG [r6_246_JUSTAS]”, the “folding stability dG unfold” value is below -1 kcal/mol in series [1] and -0.0678 ± 0.047 kcal/mol in series [2].

“SAGGSAGGMKAKVLVLDPETGKEYDSLEELKAEVEGPVLIRNSTGELILLHRDDLKYFPLPLSLSAGGSAGG [r6_684_TrMRF]”: the entries for the “folding stability dG unfold” value in series [1] and in series [2] were 0.0344 ± 0.2 kcal/mol and 0.305 ± 0.12 kcal/mol, respectively.

In the case of “SAGGSAGGMSPDVEVVTVERVITTTEPVSPSLSPEYLKAYPNATKTTTTVTVTVVPKERFEELTSAGGSAGG [r6_831_JUSTAS]”, the “folding stability dG unfold” value in series [1] is below -1 kcal/mol; in series [2], -1.44 ± 0.43 kcal/mol.

Regarding “SAGGSAGGMSTISVTVPPNVSVEEVKERLKKENPNSKYEILSVSKGPGTVKAKIAYDPLPEELLSAGGSAGG [r6_623_JUSTAS]”, the “folding stability dG unfold” value in series [1] was below -1 kcal/mol; in series [2] it was -0.782 ± 0.22 kcal/mol.

Take “SAGGSAGGMTVPASSYEGVPLKVTVSRGDENVSAEEAEVTPLPDGTVVVKLPESLPEDTEVTLESAGGSAGG [r6_630_JUSTAS]”: the “folding stability dG unfold” value is -0.137 ± 0.13 kcal/mol in series [1] and 0.703 ± 0.047 kcal/mol in series [2].

Regarding “SAGGSAGGSAGAAPDETTVTTTVTPSPGTTTVTTTTYTYAPPTNTVTSTTTTTTIPAGTASAGGSAGGSAGG [r11_237_JUSTAS]”, the “folding stability dG unfold” value in series [1] was 0.127 ± 0.36 kcal/mol; in series [2], 0.659 ± 0.057 kcal/mol.

For “SAGGSAGGSAGFLVLVTDVKENPETGTFSIYLPSTGSVKTFPPNTKAVIPAAPDEPVFVAPESAGGSAGGSA [r18_329_TrMRF]”, the entries for the “folding stability dG unfold” value in series [1] and in series [2] were below -1 kcal/mol and -0.314 ± 0.11 kcal/mol, respectively.

With “SAGGSAGGSAGGDIEINVNANSPEEAKKFLGEFAQEGPAEIKIEVTPPPPPMPPNDPEYKSAGGSAGGSAGG [r7_261_TrROS]”, the entries for the “folding stability dG unfold” value in series [1] and in series [2] were below -1 kcal/mol and -0.235 ± 0.096 kcal/mol, respectively.

In the case of “SAGGSAGGSAGGDPLERKPVKVLVLHPDKPIELEVDVGLSPEEIARPFAEKGYEVRFEGSAGGSAGGSAGGS [r10_540_TrMRF]”, the “folding stability dG unfold” value in series [1] is -0.836 ± 0.39 kcal/mol; in series [2], -1.17 ± 0.29 kcal/mol.

Consider “SAGGSAGGSAGGDSSAPKPVIVEEGSVILEVKRDPKHGVITILSRNPLGGELITYEIPRSAGGSAGGSAGGS [r10_427_JUSTAS]”, for which the “folding stability dG unfold” value is below -1 kcal/mol in series [1] and -0.563 ± 0.28 kcal/mol in series [2].
